Measurements taken from PMC3132758.

What was measured:
[1] = biological target: CdvB from Metallosphaera sedula (ESCRT-III-like), full length (Metallosphaera sedula); experiment: SEC; CdvB and CdvC mixed, 20 µM each, on Superose 6; fractions analysed by SDS-PAGE; void volume peak holds both
[2] = biological target: CdvC from Metallosphaera sedula (Vps4-like AAA ATPase) (Metallosphaera sedula); experiment: SEC; CdvC alone at >75 µM (180 µM) on Superose 6; single high molecular weight peak

| stoichiometry N [1] | stoichiometry N [2] | Substance |
| --- | --- | --- |
| 1 | – | CdvC from Metallosphaera sedula (Vps4-like AAA ATPase) |
| – | 12 | CdvC from Metallosphaera sedula (Vps4-like AAA ATPase) (enzyme) |
